From the supplement of paper PMC11208486
± gives the uncertainty stated by the source.

Experiment: specific initial activity, cyclohex-2-enone reduction (U mg-1); higher = more active
Method: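 Specific initial activity of purified ene reductases with 10 mM cyclohex-2-enone and 0.2 mM NAD(P)H in 50 mM sodium phosphate pH 7.4 with 0-45% (v/v) ethanol or methanol, at set reaction temperatures of 25-45 °C. NAD(P)H depletion was followed at 340 nm for 480 s, in triplicate.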

## MSFVKDFKPQALGDTNLFKPIKIGNNELLHRAVIPPLTRMRALHPGNIPNRDWAVEYYTQRAQRPGTMIITEGAFISPQAGGYDNAPGVWSEEQMVEWTKIFNAIHEKKSFVWVQLWVLGWAAFPDNLARDGLRYDSASDNVFMDAEQEAKAKKANNPQHSLTKDEIKQYIKEYVQAAKNSIAAGADGVEIHSANGYLLNQFLDPHSNTRTDEYGGSIENRARFTLEVVDALVEAIGHEKVGLRLSPYGVFNSMSGGAETGIVAQYAYVAGELEKRAKAGKRLAFVHLVEPRVTNPFLTEGEGEYEGGSNDFVYSIWKGPVIRAGNFALHPEVVREEVKDKRTLIGYGRFFISNPDLVDRLEKGLPLNKYDRDTFYQMSAHGYIDYPTYEEALKLGWDKK
co-solvent: ethanol, co-solvent concentration (% v/v): 30, reaction temperature 35 °C
  specific initial activity: 0.02 ± 0.02
co-solvent: ethanol, co-solvent concentration (% v/v): 30, reaction temperature 40 °C
  specific initial activity: 0.01 ± 0.01
co-solvent: ethanol, co-solvent concentration (% v/v): 30, reaction temperature 45 °C
  specific initial activity: 0.02 ± 0.01
co-solvent: ethanol, co-solvent concentration (% v/v): 35, reaction temperature 25 °C
  specific initial activity: 0.07 ± 0.04
co-solvent: ethanol, co-solvent concentration (% v/v): 35, reaction temperature 30 °C
  specific initial activity: 0.03 ± 0.03
co-solvent: ethanol, co-solvent concentration (% v/v): 35, reaction temperature 35 °C
  specific initial activity: 0.01 ± 0.02
co-solvent: ethanol, co-solvent concentration (% v/v): 35, reaction temperature 40 °C
  specific initial activity: 0.01 ± 0.01
co-solvent: ethanol, co-solvent concentration (% v/v): 35, reaction temperature 45 °C
  specific initial activity: 0.03
co-solvent: ethanol, co-solvent concentration (% v/v): 40, reaction temperature 25 °C
  specific initial activity: 0.02 ± 0.02
co-solvent: ethanol, co-solvent concentration (% v/v): 40, reaction temperature 30 °C
  specific initial activity: 0.02 ± 0.01
co-solvent: ethanol, co-solvent concentration (% v/v): 40, reaction temperature 35 °C
  specific initial activity: 0.01
co-solvent: ethanol, co-solvent concentration (% v/v): 40, reaction temperature 40 °C
  specific initial activity: 0.01 ± 0.01
co-solvent: ethanol, co-solvent concentration (% v/v): 40, reaction temperature 45 °C
  specific initial activity: 0.01 ± 0.01
co-solvent: ethanol, co-solvent concentration (% v/v): 45, reaction temperature 25 °C
  specific initial activity: 0.01 ± 0.02
co-solvent: ethanol, co-solvent concentration (% v/v): 45, reaction temperature 30 °C
  specific initial activity: 0.04 ± 0.04
co-solvent: ethanol, co-solvent concentration (% v/v): 45, reaction temperature 35 °C
  specific initial activity: 0.02
co-solvent: ethanol, co-solvent concentration (% v/v): 45, reaction temperature 40 °C
  specific initial activity: 0.01 ± 0.02
co-solvent: ethanol, co-solvent concentration (% v/v): 45, reaction temperature 45 °C
  specific initial activity: 0.02 ± 0.01
co-solvent: methanol, co-solvent concentration (% v/v): 0, reaction temperature 25 °C
  specific initial activity: 0.24 ± 0.02
co-solvent: methanol, co-solvent concentration (% v/v): 0, reaction temperature 30 °C
  specific initial activity: 0.21
co-solvent: methanol, co-solvent concentration (% v/v): 0, reaction temperature 35 °C
  specific initial activity: 0.37
co-solvent: methanol, co-solvent concentration (% v/v): 0, reaction temperature 40 °C
  specific initial activity: 0.23 ± 0.06
co-solvent: methanol, co-solvent concentration (% v/v): 0, reaction temperature 45 °C
  specific initial activity: 0.07 ± 0.05
co-solvent: methanol, co-solvent concentration (% v/v): 5, reaction temperature 25 °C
  specific initial activity: 0.21 ± 0.12
co-solvent: methanol, co-solvent concentration (% v/v): 5, reaction temperature 30 °C
  specific initial activity: 0.29
co-solvent: methanol, co-solvent concentration (% v/v): 5, reaction temperature 35 °C
  specific initial activity: 0.46 ± 0.02
co-solvent: methanol, co-solvent concentration (% v/v): 5, reaction temperature 40 °C
  specific initial activity: 0.25 ± 0.07
co-solvent: methanol, co-solvent concentration (% v/v): 5, reaction temperature 45 °C
  specific initial activity: 0.12 ± 0.1
co-solvent: methanol, co-solvent concentration (% v/v): 10, reaction temperature 25 °C
  specific initial activity: 0.3 ± 0.02
co-solvent: methanol, co-solvent concentration (% v/v): 10, reaction temperature 30 °C
  specific initial activity: 0.36 ± 0.01
co-solvent: methanol, co-solvent concentration (% v/v): 10, reaction temperature 35 °C
  specific initial activity: 0.52 ± 0.07
co-solvent: methanol, co-solvent concentration (% v/v): 10, reaction temperature 40 °C
  specific initial activity: 0.17 ± 0.07
co-solvent: methanol, co-solvent concentration (% v/v): 10, reaction temperature 45 °C
  specific initial activity: 0.08 ± 0.07
co-solvent: methanol, co-solvent concentration (% v/v): 15, reaction temperature 25 °C
  specific initial activity: 0.33 ± 0.03
co-solvent: methanol, co-solvent concentration (% v/v): 15, reaction temperature 30 °C
  specific initial activity: 0.4 ± 0.03
co-solvent: methanol, co-solvent concentration (% v/v): 15, reaction temperature 35 °C
  specific initial activity: 0.55 ± 0.04
co-solvent: methanol, co-solvent concentration (% v/v): 15, reaction temperature 40 °C
  specific initial activity: 0.09 ± 0.07
co-solvent: methanol, co-solvent concentration (% v/v): 15, reaction temperature 45 °C
  specific initial activity: 0.04 ± 0.04
co-solvent: methanol, co-solvent concentration (% v/v): 20, reaction temperature 25 °C
  specific initial activity: 0.37 ± 0.04
co-solvent: methanol, co-solvent concentration (% v/v): 20, reaction temperature 30 °C
  specific initial activity: 0.43 ± 0.01
co-solvent: methanol, co-solvent concentration (% v/v): 20, reaction temperature 35 °C
  specific initial activity: 0.4 ± 0.08
co-solvent: methanol, co-solvent concentration (% v/v): 20, reaction temperature 40 °C
  specific initial activity: 0.02 ± 0.04
co-solvent: methanol, co-solvent concentration (% v/v): 20, reaction temperature 45 °C
  specific initial activity: 0.01 ± 0.01
co-solvent: methanol, co-solvent concentration (% v/v): 25, reaction temperature 25 °C
  specific initial activity: 0.31 ± 0.06
co-solvent: methanol, co-solvent concentration (% v/v): 25, reaction temperature 30 °C
  specific initial activity: 0.3 ± 0.01
co-solvent: methanol, co-solvent concentration (% v/v): 25, reaction temperature 35 °C
  specific initial activity: 0.06 ± 0.04
co-solvent: methanol, co-solvent concentration (% v/v): 25, reaction temperature 40 °C
  specific initial activity: 0.02 ± 0.01
co-solvent: methanol, co-solvent concentration (% v/v): 25, reaction temperature 45 °C
  specific initial activity: 0.02 ± 0.01
co-solvent: methanol, co-solvent concentration (% v/v): 30, reaction temperature 25 °C
  specific initial activity: 0.19 ± 0.03
co-solvent: methanol, co-solvent concentration (% v/v): 30, reaction temperature 30 °C
  specific initial activity: 0.14 ± 0.02
co-solvent: methanol, co-solvent concentration (% v/v): 30, reaction temperature 35 °C
  specific initial activity: 0.01
co-solvent: methanol, co-solvent concentration (% v/v): 30, reaction temperature 40 °C
  specific initial activity: 0.01 ± 0.01
co-solvent: methanol, co-solvent concentration (% v/v): 30, reaction temperature 45 °C
  specific initial activity: 0 ± 0.01
co-solvent: methanol, co-solvent concentration (% v/v): 35, reaction temperature 25 °C
  specific initial activity: 0.03 ± 0.02
co-solvent: methanol, co-solvent concentration (% v/v): 35, reaction temperature 30 °C
  specific initial activity: 0.04 ± 0.03
co-solvent: methanol, co-solvent concentration (% v/v): 35, reaction temperature 35 °C
  specific initial activity: 0.01
co-solvent: methanol, co-solvent concentration (% v/v): 35, reaction temperature 40 °C
  specific initial activity: 0
co-solvent: methanol, co-solvent concentration (% v/v): 35, reaction temperature 45 °C
  specific initial activity: 0
co-solvent: methanol, co-solvent concentration (% v/v): 40, reaction temperature 25 °C
  specific initial activity: 0.02 ± 0.02
co-solvent: methanol, co-solvent concentration (% v/v): 40, reaction temperature 30 °C
  specific initial activity: 0.03 ± 0.01
co-solvent: methanol, co-solvent concentration (% v/v): 40, reaction temperature 35 °C
  specific initial activity: 0 ± 0.01
co-solvent: methanol, co-solvent concentration (% v/v): 40, reaction temperature 40 °C
  specific initial activity: 0.01 ± 0.01
co-solvent: methanol, co-solvent concentration (% v/v): 40, reaction temperature 45 °C
  specific initial activity: 0.01 ± 0.01
co-solvent: methanol, co-solvent concentration (% v/v): 45, reaction temperature 25 °C
  specific initial activity: 0.01
co-solvent: methanol, co-solvent concentration (% v/v): 45, reaction temperature 30 °C
  specific initial activity: 0.03
co-solvent: methanol, co-solvent concentration (% v/v): 45, reaction temperature 35 °C
  specific initial activity: 0.01
co-solvent: methanol, co-solvent concentration (% v/v): 45, reaction temperature 40 °C
  specific initial activity: 0.01 ± 0.01
co-solvent: methanol, co-solvent concentration (% v/v): 45, reaction temperature 45 °C
  specific initial activity: 0 ± 0.01
